Key:
[1] = steady-state domain-selective surface biotinylation, immunoblot; conditions: glycan lost; control: ΔBS p75NTR
[2] = pulse-chase, ER-to-Golgi transport by O-glycan acquisition; conditions: glycan lost; control: native rat p75NTR

Molecule	localisation_or_trafficking, other: percent apical [1]	localisation_or_trafficking, other: half-time of ER-to-Golgi transport [2]
p75NTR (p75 neurotrophin receptor): N32D/ΔBS	no change, <10 vs <10	–
p75NTR (p75 neurotrophin receptor): N32D (protein) parent chain: MRRAGAACSAMDRLRLLLLLILGVSSGGAKETCSTGLYTHSGECCKACNLGEGVAQPCGANQTVCEPCLDNVTFSDVVSATEPCKPCTECLGLQSMSAPCVEADDAVCRCAYGYYQDEETGHCEACSVCEVGSGLVFSCQDKQNTVCEECPEGTYSDEANHVDPCLPCTVCEDTERQLRECTPWADAECEEIPGRWIPRSTPPEGSDSTAPSTQEPEVPPEQDLVPSTVADMVTTVMGSSQPVVTRGTTDNLIPVYCSILAAVVVGLVAYIAFKRWNSCKQNKQGANSRPVNQTPPPEGEKLHSDSGISVDSQSLHDQQTHTQTASGQALKGDGNLYSSLPLTKREEVEKLLNGDTWRHLAGELGYQPEHIDSFTHEACPVRALLASWGAQDSATLDALLAALRRIQRADIVESLCSESTATSPV	–	no change, 35–40 vs 35–40
